Here are results for 4 molecules from patent US20250000945A1, “Suppression of Neurodegeneration with Zinc Transporter Protein 7” (The Regents of the University of California, priority 2021, published 2025).

One assay concerns border cells. The assay can be described thus: Border cell migration in stage 10 egg chambers expressing Catsup RNAi (rescue by co-expressed transgenes). It is filed as in vivo, Drosophila. Particulars: co-expressed with Catsup RNAi in border cells. The source says:
Border cell clusters are composed of 4-6 migratory cells that surround and carry two non-migratory polar cells. Expression of a Catsup RNAi line in outer, migratory border cells using fruitlessGal4^51 inhibited migration (FIG. 2A). The defect was rescued by co-expression of UAS-CatsupV5 (FIG. 2B). Reduction of Catsup::GFP confirmed the effectiveness of the RNAi (FIGS. 2C, C′ and 2D, D′). Border cell migration was also impaired when Catsup RNAi was driven by c306Gal4 (FIG. 2E), which is expressed in both polar and migratory cells.
ZIP7 resides in the ER membrane and transports Zn^2+ from the ER to the cytosol^64. To test whether the Zn^2+ transporter activity of Catsup was important for border cell migration, we introduced point mutations, H315A and H344A, which replace histidine residues that are required for Zn^2+ transport and are conserved between Catsup, ZIP7 and a more distant family member from Arabidopsis IRT1. […] We generated transgenic flies expressing the mutants under Gal4/UAS control and included a V5 tag so that we could monitor protein abundance and localization. We then co-expressed each of these RNAi-resistant transgenes with CatsupRNAi and evaluated protein expression and border cell migration (FIGS. 5B-5E). […] All the proteins were stably expressed and correctly localized to the ER (FIGS. 5B-5E), therefore the lack of rescue was likely a consequence of impaired transporter activity rather than impaired expression, localization, or another function. […] From these experiments, we conclude that Zn^2+ transport is an essential function of Catsup in promoting ERAD.
Catsup mutant fly was generated by ethyl methanesulfonate (EMS) mutagen^37. The mutation results in glycine(G) to aspartic acid(D) replacement at amino acid 178. The FLP/FRT system was used to generate the Catsup^G178D homozygous mutant clones by combining FRT40A-Catsup^G178D with hsFLP12,yw;ubi:GFPnls, FRT40A or hsFLP12,yw;ubi:RFPnls, FRT40A/(CyO). Catsup::GFP expression pattern visualized by the line from VDRC 318542 in the fTRG stocks library. The UAS-CatsupRNAi transgenic line is from VDRC 100095 P{KK103630}VIE-260B. Wild type rescue w[*]; sna[Sco]/CyO; P{w[+mCJ=UAS-Catsup. V5}6 Bloomington 63229. Additional transgenic Drosophila stocks used: UAS-wRNAi/Cyo is a lab stock, UAS-PleRNAi Bloomington 25796 y[1] v[1]; P{y[+t7.7] v[+t1.8]=TRiP.JF01813}attP2, UAS-Ple is Bloomington 37539 w[*]; P{w[+mC]=UAS-ple.T}331f2, O-fucosyltransferasel Bloomington 9376 P{UAS-O-fut.}]1.1, UAS-Notch.Intracellular.Domain on third chromosome was a gift from Artavanis-Tsakonas lab^71. The ER stress marker UAS-Xbp1-EGFP.HG Bloomington 60731 w[*]; P{w[+mC]=UAS-Xbp1.EGFP.HG}3, UAS-HSC70-3 Bloomington 5843 w[126]; P{w[+mC]=UAS-Hsc70-3. WT}B. Catsup point mutations were cloned into vector pUASt-attb with forward primer ctctgaatagggaattggg[…] (SEQ ID NO:1) and reverse primer ccgcagatctgttaacgtca[…] (SEQ ID NO:2). The vector was injected to attp2 flies y1 w67c23; P{CaryP}attP2 by BestGene Inc.
When generating UAS-Catsup-point-mutations, we designed the construct so it cannot be targeted by the CatsupRNAi sequences by substituting redundant codons for the same amino acids within the region targeted by the RNAi. The RNAi resistant sequence is below with nucleic acid substitutions in lower case:
Point mutations were designed by changing codons at the following site CatsupH183A (CAC to GCC), CatsupH187A (CAT to GCT), CatsupH315A (CAT to GCT), CatsupH344A ([…]). […]

Another assay deals with Notch and EGFR. The assay can be described thus: Intracellular accumulation of Notch and EGFR in mosaic clones expressing CatsupRNAi. It is filed as in vivo, Drosophila. Particulars: mosaic expression with CatsupRNAi. The text has this: In wing imaginal disc epithelia, multiple transmembrane receptor proteins, including Notch and EGFR, accumulate abnormally in Catsup mutant cells^40. We similarly found abnormal intracellular accumulation of Notch in follicle cells generally (FIG. 3D, D′) and border cells specifically (FIG. 3E, E′) upon Catsup knockdown. […] As in imaginal discs, EGFR also accumulated abnormally in Catsup RNAi-expressing border cells (FIG. 3G, G′) and epithelial follicle cells (FIG. 3H, H′), whereas E-Cadherin was unaffected (FIG. 31, I′). From these observations, we conclude that Catsup prevents intracellular accumulation of particular transmembrane proteins and promotes Notch signaling, migration and survival in multiple cell types and organisms.
ZIP7 resides in the ER membrane and transports Zn^2+ from the ER to the cytosol^64. To test whether the Zn^2+ transporter activity of Catsup was important for border cell migration, we introduced point mutations, H315A and H344A, which replace histidine residues that are required for Zn^2+ transport and are conserved between Catsup, ZIP7 and a more distant family member from Arabidopsis IRT1. […] We then co-expressed each of these RNAi-resistant transgenes with CatsupRNAi and evaluated protein expression and border cell migration (FIGS. 5B-5E). […]

B1: O-fucosyltransferase-1: Notch specific chaperone, overexpressed from a UAS transgene (protein, UniProt Q9V6X7 24-402, looked up)
GDP-fucose protein …: QLGGDPNGYLTYCPCMGRFGNQADHFLGSLAFAKALNRTLILPPWVEYRRGELRSRQVPFNTYFEVEPLKEYHRVITMADFMWHLADDIWPESERVSFCYKERYSLQQEKNDPDKPNCHAKDGNPFGPFWDTFHIDFVRSEFYAPLHFDVHHSNEAAKWQTKYPAESYPVLAFTGAPASFPVQLENCKLQRYLQWSQRYREASKDFIREQLPRGAFLGIHLRNGIDWVRACEHVKDSQHLFASPQCLGYKNERGALYPELCMPSKEAIIRQLKRTIKNVRQTQPDNEIKSVFVASDSNHMIGELNTALSRMGISVHKLPEDDPYLDLAILGQSNHFIGNCISSYSAFEKRERDVHGFPSYFWGFPKEKDRKHTNVHEEL
As for B1, the “rescue of border cell migration defect” value with border cells is “neither NICD expression nor overexpression of the Notch specific chaperone O-fucosyltransferase-1^58 was sufficient to rescue Catsup RNAi”.

B2: Catsup^H187A: V5-tagged RNAi-resistant Catsup point mutant that does not disrupt Zn2+ transport (control) (protein, UniProt Q9V3A4 1-449, looked up, variant H187A)
Protein catecholamines up: MAKQVADYQCSKLQLYQKLALVVILGAVLFSLPALCAGQGNPSFKYSREANENFDPQKAPRAEHHHHHDHDHDHGHHHHGHDHDHDHDHGHDHGHHHHGHDHDHDHDHGHHHHGHDERHTKAKPDLDMSTIWLHSIGSTLLISAAPFVLLYIIPLDNSEAMKPRLKVLLAFASGGLLGDAFLHLIPAATHPHSHGEHGHDHGHDHHHHHDGEEHEHGHSHDMSIGLWVLGGIIAFLSVEKLVRILKGGHGGHGHSHGAPKPKPVPAKKKSSDKEDSGDGDKPAKPAKIKSKKPEAEPEGEVEISGYLNLAADFAHNFTDGLAIGASYLAGNSIGIVTTITILLHEVPHEIGDFAILIKSGCSRRKAMLLQLVTALGALAGTALALLGAGGGDGSAPWVLPFTAGGFIYIATVSVLPELLEESTKLKQSLKEIFALLTGVALMIVIAKFE
modifications: V5 tag
As for B2, the “rescue of border cell migration defect” value in the assay on border cells was “rescue border cell migration to nearly wild type levels”. Moreover, the “rescue of accumulation of Notch and EGFR” value with Notch and EGFR is reported as “did”.

B3: Catsup^H183A: V5-tagged RNAi-resistant Catsup point mutant that does not disrupt Zn2+ transport (control) (protein, UniProt Q9V3A4 1-449, looked up, variant H183A)
Protein catecholamines up: MAKQVADYQCSKLQLYQKLALVVILGAVLFSLPALCAGQGNPSFKYSREANENFDPQKAPRAEHHHHHDHDHDHGHHHHGHDHDHDHDHGHDHGHHHHGHDHDHDHDHGHHHHGHDERHTKAKPDLDMSTIWLHSIGSTLLISAAPFVLLYIIPLDNSEAMKPRLKVLLAFASGGLLGDAFLALIPHATHPHSHGEHGHDHGHDHHHHHDGEEHEHGHSHDMSIGLWVLGGIIAFLSVEKLVRILKGGHGGHGHSHGAPKPKPVPAKKKSSDKEDSGDGDKPAKPAKIKSKKPEAEPEGEVEISGYLNLAADFAHNFTDGLAIGASYLAGNSIGIVTTITILLHEVPHEIGDFAILIKSGCSRRKAMLLQLVTALGALAGTALALLGAGGGDGSAPWVLPFTAGGFIYIATVSVLPELLEESTKLKQSLKEIFALLTGVALMIVIAKFE
modifications: V5 tag
B3: the “rescue of border cell migration defect” value with border cells is given as “rescue border cell migration to nearly wild type levels”. Also, the “rescue of accumulation of Notch and EGFR” value with Notch and EGFR is “did”.

B4: Catsup^H315A: V5-tagged RNAi-resistant Catsup point mutant replacing a histidine required for Zn2+ transport (protein, UniProt Q9V3A4 1-449, looked up, variant H315A)
Protein catecholamines up: MAKQVADYQCSKLQLYQKLALVVILGAVLFSLPALCAGQGNPSFKYSREANENFDPQKAPRAEHHHHHDHDHDHGHHHHGHDHDHDHDHGHDHGHHHHGHDHDHDHDHGHHHHGHDERHTKAKPDLDMSTIWLHSIGSTLLISAAPFVLLYIIPLDNSEAMKPRLKVLLAFASGGLLGDAFLHLIPHATHPHSHGEHGHDHGHDHHHHHDGEEHEHGHSHDMSIGLWVLGGIIAFLSVEKLVRILKGGHGGHGHSHGAPKPKPVPAKKKSSDKEDSGDGDKPAKPAKIKSKKPEAEPEGEVEISGYLNLAADFAANFTDGLAIGASYLAGNSIGIVTTITILLHEVPHEIGDFAILIKSGCSRRKAMLLQLVTALGALAGTALALLGAGGGDGSAPWVLPFTAGGFIYIATVSVLPELLEESTKLKQSLKEIFALLTGVALMIVIAKFE
Turning to B4, in the assay on border cells, the “rescue of border cell migration defect” value was “neither Castup^H344A nor Catsup^H315A provided significant rescue”.
